From the DeepSol protein solubility set come the findings set out here.

The nature of the series: soluble on expression in E. coli; label from the status in PepcDB or PDB records.
In the case of “MLNEKAIQDVDLYFQNIHGPEGRLASNETFDIVPGLSKDGAVQYQTYQFNEAPKHLQKQVKAGRILMERFVAVASAAVNKKAPSNKEKYHYDIWKEVSNQLIPAFFTDPIKGEQNLNTTVKGVEVAKSVIQFAGNVIAGNVTGFATFLQNFGNGLSAEMNKTQANYNYLYAYSTHDLFQDTSGNVFYKPRFLIYGTHFKQEQKKIATSCASYQEVNLEFGVDTVGGTFRIEEYFSNETFKKKVDNFLDKYEGKAIDDADSYFDDIFNGVKPNKNYVYHHHHHH”, the “soluble on expression in E. coli” value is on record as “soluble”. “MLNKRHLPSIAALQCFEAVTRHLSFTRAAEELNLTQSAVSKQVAQLEELVQHLLFQRVRRRLQLTPAGALYLAEVRKILTQIEMSTHFLRSYGGETEVLRVSTPSTFGARWLVPRLKGWRLRHPHIHLDLINEQESDDLLKGRCDVSFYFGQAAIPGAESVKLFGEELVPVCSPDSLPAEPFTDPTQLSELVLLQNAFRPQAWHEWFESQGYHTDHSYHGPRFETFYMCIRAAQVGCGVALLPRFLVEEELAEGKLVIAWDYALPSTNSAYYLSYPEHTADVPKIRVFLQWMLEQLDQPAR”: the “soluble on expression in E. coli” value is “not soluble”. For the sequence “MLNLSGLSLSCEYQPFVCPHTKHIHGYEALARFYLGQGQAIAPNLVFEQLHENSNALAAVEFQAKTFQLKHAPARQSLFVNVDPHAANGVHTQKLLDLLSSHPQLTVEIIENTCISDAELANQLFHQFKTANLNVALDDIGAPHSMLSVDLMMNVDYLKFDRHWLNLVAEPHGIALLSALIEFGKRTGKQCILEGIETEAQLQLARELNVDLVQGFLFKPWFIRPEQSERLIC”, the “soluble on expression in E. coli” value is on record as “soluble”. Then “MLPSTSKSVEVNENSEEPIELEENVIVVTGDEIQAEIAVVDGEEVIFADDDEYIEYDPLSIANDRNAVYDIYQPHESENGTFMCKICMRTGKNTEYEDRSTFVAHRYKCHGSFNNNVMCPLGDCREVFASLYTLRRHLSQQHELPIEIHLQSFVNIGEFEKFRHLVELASGCRFMMHTKQPKYRRQVMHCSKSEHKLVLQTQKHRLPRERMLKEGSACPSVISYRVESSSGEVHTFMQLYHIGHAPDTESQNSNADNARPMDIVFPIKPACWANHPMQYVQIDVHEMPTSIYGNKIYDNILIVTCLKTRFLWAKPLFECTRTAIGRILNSIFNEYGVPEGFSTSFSPTYIRDTIKSLESVYAVEIREVWNEPLPYNCLERWVLELAQNELGTRNRWVEQLQFLVMEYNQKPIPDRMETPFERMFNRKAPNLYHNGDNQEIIHDKYISYHSELRNEEEGVENRLNTSFEPGRKVFLRKGITKPRRGNNTQYYFGYIGEVDPSNPYYPFKVHYTSSDSPWPSERNIYAWVSVFDLLPTIHEISEMSMTSKKVSIAGLLCSCMGIESSQKYDLTAMGDIARESSRCLLFRNCLCTNQMSRFCCKLVGREHCRFHSVYPENDESYAKMDAALSSFIAYNKDSSKEAEKDLQDSTPIEQILNEVGRRRLESEITVEDPEDLAPPILEPMEPTERHLDTEEEEEEPNQIPMASEHIDIEGVDEEEIMEHSVNAISEEILFEYADDKRDDGPSTPKRGRRRKSPSESAGKKKKLSNNDEFVESTVSRRSSARRTIRPKNLDDYVE”, with “not soluble”; and “MLQEIPTTTPSLREARPCVLETERLTLRKPVLADVQAIASLANDRRVVEMTRRMPFPYTRDDAARFVTALPKSSDSVFLIEAEDLEPIGLVGVDWSDRDAPELGYWLGVQHWGNGYATEAARAVIDFTFEVHGAKQMISGARVINPASRNVLEKCGFQWTGVELHRFESIGSSTPVDCFRLTRGVWSSLKKWGTTKRRC”, with “not soluble”.

In the case of “MLQLTHVTLKTRQVILQDVDFTFKKGRVYGLLAINGSGKTTLFRAISNLIPISSGNIAAPPSLFYYESIEWLDGNLSGMDYLRLIKNIWKSGLNLRDEIAYWEMSDYISLPIRKYSLGMKQRLVIAMYFLSQAKCWLMDEITNGLDEYYRQKFFDRLAQIDRQEQLVLLSSHYKEELVDVCDRVVTIHQGQIEEV”, the “soluble on expression in E. coli” value is on record as “not soluble”. As to “MLREIPTHLIGGPLGAGKTSLIRSLLAQKPAGERWAVLVNEFGEIGLDAALLATDVDGVAIGEVAGGCLCCVNGVPFQVGLGRLLRRARPDRLFIEPSGLGHPQALWKQLQAPPWSGVLALQPLVVVLDAAALASGQPLPEAQEQALEAAGMLLLNKSETLDATQRCAVRARLPVLPLRWSVRGHLALRDLPTSVAGEGSATTWAALPEAPAQLGTVLLAERPLRAVREQDGQFAIGWRRRCVSIGPQWTPGLEHHHHHH”, the “soluble on expression in E. coli” value was “not soluble”. As to “MLRPPMTKLVISNRESHRECEQVLQIGECAIVRSSSGEPWQLLNNGNSDSIDYALLQDILYEGYRLSTIYNIKSHTKSMKRLRRKLASIFSNSNFLLPLSKDGSSSSSQPHFYLSPSNSSLFDARKSSRSRGAVIKSPSTINIEKNRHSSNSGENQKMRLNLSMSTGNLCRAGVVRTPYPTSKQLHFDNDDGDEEDDTDDEGEADLVSIKTRSGRRNVLKSPPPPERIPSSMGASDAEEIDIKSHMKPLSVKIPANIFKTPTLDIPVDDDAEIDADVFPLPPPTPVNLKHGLFSIPSGRNSESARSRQTKRSPFGSVTSRTSSLDRRMSLSCLEDTSNYQKTQYLVFPLRTSSKKPYLLKFPEDMQEEDEKHNGSVWGSDTSLEEEIKV”, the “soluble on expression in E. coli” value was “not soluble”. In the case of “MLRRIKRFLGLSTHAYFPNNEVAPTADGSLISTMSRKSTKSERKAAKKEKKRSQLADTSAPAIFHVPTAPADIVTEGEGSTVGQGSEIDRRTVITDSLPYREPSDKVYMGSPPSTVPQAPESSSSTRSLVGSDSIKSRLESMTIDGTSSVLQHVDSLTNSVYSAEFCQEVDSQNTCDAKSRELPVDCDIPTATEPLPISTKSNPVSNSSLTYMADVKLILPDKRDEKSEEVAGMKQLNAELDGLLKTSAPPFQVSTARLPPMLRELPPPANDESMLSGNDEFDDSKNNSVARYLNESHEVMMRSPENKHLRSCGY”, the “soluble on expression in E. coli” value was “not soluble”.

On to “MLRRRTFLSWSSGKDSAWALHVLRQDPHVDVIGLFCTVNKVFDRVVMHGVRVALLQQQAESAGLPLHIIEIPYPCSNDEYASAMSAFVDSARKENIECFAFGDLLLEDVRQYREDRLNGTGITPIFPLWGIPTKTLSREMVAGGLKAVITCIDPKRIPESFAGREYNESFLDDIPGSVDPCGEYGEFHTFSFDGPMFQNPIDVVLGETVHRDGFVFTDLLSLTSSTEPTH”, for which the “soluble on expression in E. coli” value is listed as “not soluble”. Consider “MLRSVPFDLVTRLMTTHFVSRQIFIGSGRVGIGEHSENAGYQLSQRADYFHMKVGLQTTFDRPIINTRDESHSTDEYRRLHVIVGDANRMDVPQALKLGTTSMLLWLLEHADMAEIDLNEALGPLTLADPVEAMHTVSHDLTLAAPLPLETGGTTTAWQMQVTLRGLVYAAAATVYGTDTSGEPAWPDRSTRNIMAMWGQALADVATVRHADDDGRLTMREQASRLEWLLKWQLLEKLRRKTGSDWTDRRLAAVDLKWAALDPADSIFTRLAGQTERLVTDKQLAEAVGQAPADTRAWLRAEIVRRFPEQVIAASWSHLTVRGESSGDENVENSMVSLDMSNPLKFTESLCSEAFERVHTASGIVESLR”, for which the “soluble on expression in E. coli” value was “not soluble”. “MLSARTMKEVVYWSPKKVADWLLENAMPEYCEPLEHFTGQDLINLTQEDFKKPPLYRVSSDNGQRLLDMIETLKMEHHMEAHKN”: the “soluble on expression in E. coli” value is “soluble”. For the sequence “MLSKISESLANLSGAERKVAECALAEPKWFVHAAVAEIAERASVSQPTVIRFCRSLGYKGLPEFKLALSASIGHEGMPYVHEELNADDDMASVVEKVLGNAAASLLGERRFLKESELENAIATLMHARRVEFYGVGNSGIVAQDAQHKFFRFGMSTVAYVDTHTQLMAASVLSDQDVLVAISNTGSSIELLDAVSIAKENGASVIALTRNDSPLAQLADCVLSVATQENAELYTPMVSRLLQLAVIDILAIGLALRLGDAASLQLQKSKKSIHNKHIDYDKD”, the “soluble on expression in E. coli” value was “soluble”. For the sequence “MLSSQAYDIAIVGGGMVGLATAIGLAQADLNVVVIDAGHTEAVSGEPRLRVSAINKASQRLLEHLGAWHYVDASRATPYQKMAVWDKDGFGKIAFDASSISEPSLGAIIENDAISYALAKRASEFDNITHIENQRLERIAFGEREAWLTLANSADAEIESVSAALVIAADGANSWVREQCKIPLTFWDYGHHAIVATIRSEMPHLATARQVFLQDGPLAFLPLYEDNLCSIVWSVPPERATELLAMDKVQFERNLTAAFDGRLGICKLESERQAFPLRMRYARHFARHRLVLAGDAAHTIHPLAGQGVNLGFLDAASIIEVISELQQAGKDIGDYAELRALERWRKADAMEMIAAMEGFKRLFEGSNPVKKAIRDLGLNLVDNVAGLKTVFMQQAMGNKSSLPKLCRLEHHHHHH”, the “soluble on expression in E. coli” value was “soluble”. For “MLTRGFTSIGKIASRGLSSTFYQDAFQLSDQLTEDERSLMLSAREYCQERLLPRVTEAYRTEKFDPSLIPEMGSMGLLGAPYQGYGCAGTSTVGYGLIAREVERVDSGYRSTMSVQTSLVIGPIYNYGSEDQKQKYIPDLASGKKIGCFGLTEPNHGSNPGGMETKATWDETTKTYKLNGSKTWISNSPVSDVMVVWARSARHNNKIKGFILERGMKGLTTPKIEGKLSLRASITGQIAMDDVPVPEENLLPNAEGLQGPFGCLNNARLGIAWGALGAAEECFHLARQYTLDRQQFGRPLAQNQLMQLKMADMLTEISLGLQGCLRVSRLKDEGKVQSEQISIIKRNSCGKALEVARKARDMLGGNGIVDEYHIMRHMVNLETVNTYEGTHDVHALILGRAITGLNGFC”, the “soluble on expression in E. coli” value is recorded as “not soluble”. For “MLVDGKLVCVTGAGGYIASWIVKLLLERGYTVRGTVRNPTDPKNNHLRELQGAKERLTLHSADLLDYEALCATIDGCDGVFHTASPMTDDPETMLEPAVNGAKFVIDAAAKAKVKRVVFTSSIGAVYMNPNRDTQAIVDENCWSDLDFCKNTKNWYCYGKMLAEQSAWETAKAKGVDLVVLNPVLVLGPPLQSAINASLVHILKYLTGSAKTYANLTQVYVDVRDVALGHVLVYEAPSASGRYILAETALHRGEVVEILAKFFPEYPLPTKCSDEKNPRAKPYKFTTQKIKDLGLEFKPIKQSLYESVKSLQEKGHLPLPQDSNQNEVIIES” the value was “soluble”. Turning to “MLVEGSELQSGAQQPRTEAPQHGELQYLRQVEHIMRCGFKKEDRTGTGTLSVFGMQARYSLRDEFPLLTTKRVFWKGVLEELLWFIKGSTNAKELSSKGVRIWDANGSRDFLDSLGFSARQEGDLGPVYGFQWRHFGADYKDMDSDYSGQGVDQLQKVIDTIKTNPDDRRIIMCAWNPKDLPLMALPPCHALCQFYVVNGELSCQLYQRSGDMGLGVPFNIASYALLTYMIAHITGLQPGDFVHTLGDAHIYLNHIEPLKIQLQREPRPFPKLRILRKVETIDDFKVEDFQIEGYNPHPTIKMEMAV”, the “soluble on expression in E. coli” value is on record as “soluble”.

As to “MLVSRNLAKTISNSKNAKNIHTSCRKFAPVPMTYASYSSPELDRNSPLVIVHGLFGQKQNWNSVGKALHKKLEAPVYAVDVRNHGSSPHTETMSYTEMAEDLVLFIDKVKEETKKTRVNLLGHSMGGKIVMRLAIDSKWSDRIEKLIVEDVSPKGYSRRHLEFRELIKTMRNVDLCRTRKEILKDLESAIPDLAMRQFILTNLQPSSENEGQMEWKININTIDSHVDEILGYTLPVGSFRGPTLFLHGANSGYVPDDHKPDIKCLFPQVQFDAIPDSGHWVHAEKPQLFINSVYKFLKP”, the “soluble on expression in E. coli” value was “not soluble”. In the case of “MLWQKPTAPEQAPAPARPYQGVRVKEPVKELLRRKRGHASSGAA”, the “soluble on expression in E. coli” value is “soluble”. Consider “MLYAATRATLKKEFGGGHIKDEVFGTVKEDVSLHGYKKYLLSQSSPAPLTAAEEELRQIKINEVQTDVGVDTKHQTLQGVAFPISREAFQALEKLNNRQLNYVQLEIDIKNEIIILANTTNTELKDLPKRIPKDSARYHFFLYKHSHEGDYLESIVFIYSMPGYTCSIRERMLYSSCKSRLLEIVERQLQMDVIRKIEIDNGDELTADFLYEEVHPKQHAHKQSFAKPKGPAGKRGIRRLIRGPAETEATTD”, for which the “soluble on expression in E. coli” value is reported as “soluble”.
